Assay results as given in article PMC7565984, “A Phosphorylation-Induced Switch in the Nuclear Localization Sequence of the Intrinsically Disordered NUPR1 Hampers Binding to Importin” (Biomolecules, 2020).
Where a SMILES comes first, the peptide text is derived from it. [ ]: non-standard residue; d: D form. pT = C[C@@H](OP(=O)(O)O)[C@H](N)C(=O)O

T1: human importin α3 (Impα3) (Homo sapiens, UniProt O00629)
T1 construct: although the IBB region maintains its independence within the whole Impα3 in terms of conformation; His-tag (N); made in house; host or cells: Escherichia coli BL21 (DE3)
T1 sequence (O00629 1-521): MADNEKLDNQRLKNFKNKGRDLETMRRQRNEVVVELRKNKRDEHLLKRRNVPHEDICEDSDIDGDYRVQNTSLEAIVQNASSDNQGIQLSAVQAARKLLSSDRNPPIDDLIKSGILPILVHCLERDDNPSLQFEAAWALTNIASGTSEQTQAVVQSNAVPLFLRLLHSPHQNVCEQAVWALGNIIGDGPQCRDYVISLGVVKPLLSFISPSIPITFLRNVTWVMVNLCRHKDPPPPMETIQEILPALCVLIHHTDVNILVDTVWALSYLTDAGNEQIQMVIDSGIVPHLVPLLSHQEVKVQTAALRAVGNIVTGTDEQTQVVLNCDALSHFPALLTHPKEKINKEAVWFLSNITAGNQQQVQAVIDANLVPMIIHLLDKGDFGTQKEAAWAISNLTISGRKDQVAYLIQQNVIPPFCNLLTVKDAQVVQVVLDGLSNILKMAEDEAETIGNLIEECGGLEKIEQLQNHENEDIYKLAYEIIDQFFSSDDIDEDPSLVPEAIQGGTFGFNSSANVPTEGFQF

T2: ΔImpα3 (importin α3 without the IBB domain, residues 64-521) (Homo sapiens, UniProt O00629)
T2 construct: The His-tagged ΔImpα3 (residues 64-521) was obtained from BL21 (DE3) cells as described; His-tag; made in house; host or cells: Escherichia coli BL21 (DE3)
T2 sequence (O00629 64-521): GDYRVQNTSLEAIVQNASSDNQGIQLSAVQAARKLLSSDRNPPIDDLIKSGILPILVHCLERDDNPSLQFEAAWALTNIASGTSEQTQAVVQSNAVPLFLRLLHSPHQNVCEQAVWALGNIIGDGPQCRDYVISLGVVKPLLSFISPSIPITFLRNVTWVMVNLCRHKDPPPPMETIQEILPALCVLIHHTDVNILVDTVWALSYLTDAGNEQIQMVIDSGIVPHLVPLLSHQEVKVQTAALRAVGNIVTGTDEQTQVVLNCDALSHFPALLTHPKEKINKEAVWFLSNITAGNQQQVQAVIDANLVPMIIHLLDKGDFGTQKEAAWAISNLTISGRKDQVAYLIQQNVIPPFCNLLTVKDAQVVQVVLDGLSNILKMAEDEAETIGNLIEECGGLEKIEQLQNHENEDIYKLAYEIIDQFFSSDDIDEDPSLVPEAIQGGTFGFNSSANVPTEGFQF

T3: human importin α3 (intact, with the IBB domain) (human, UniProt O00629 1-521)
T3 construct: human importin α3 (KPNA4), intact protein with the IBB domain; codon-optimized synthetic DNA in the vector pHTP1; also called Impα3; KPNA4; source: E. coli BL21 (DE3), purified (as for ΔImpα3)
T3 sequence (looked up): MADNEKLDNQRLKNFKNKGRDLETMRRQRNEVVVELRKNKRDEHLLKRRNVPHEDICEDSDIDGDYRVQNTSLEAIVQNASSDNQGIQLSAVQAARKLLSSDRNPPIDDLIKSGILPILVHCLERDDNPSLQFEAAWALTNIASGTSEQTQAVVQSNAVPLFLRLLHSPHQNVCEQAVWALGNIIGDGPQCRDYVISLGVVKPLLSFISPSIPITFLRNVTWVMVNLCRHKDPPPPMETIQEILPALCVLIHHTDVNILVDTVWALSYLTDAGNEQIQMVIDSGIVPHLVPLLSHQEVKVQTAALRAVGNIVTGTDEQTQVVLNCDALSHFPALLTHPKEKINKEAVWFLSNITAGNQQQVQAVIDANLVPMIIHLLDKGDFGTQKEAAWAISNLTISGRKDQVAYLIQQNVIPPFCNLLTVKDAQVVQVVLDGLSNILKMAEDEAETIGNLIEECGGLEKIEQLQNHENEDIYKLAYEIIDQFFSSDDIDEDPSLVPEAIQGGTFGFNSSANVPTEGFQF

T4: truncated importin α3 without the IBB domain (residues 64-521) (human, UniProt O00629 64-521)
T4 construct: human importin α3 (KPNA4) without the IBB domain, residues 64-521; also called ΔImpα3; ΔImportin
T4 sequence (looked up): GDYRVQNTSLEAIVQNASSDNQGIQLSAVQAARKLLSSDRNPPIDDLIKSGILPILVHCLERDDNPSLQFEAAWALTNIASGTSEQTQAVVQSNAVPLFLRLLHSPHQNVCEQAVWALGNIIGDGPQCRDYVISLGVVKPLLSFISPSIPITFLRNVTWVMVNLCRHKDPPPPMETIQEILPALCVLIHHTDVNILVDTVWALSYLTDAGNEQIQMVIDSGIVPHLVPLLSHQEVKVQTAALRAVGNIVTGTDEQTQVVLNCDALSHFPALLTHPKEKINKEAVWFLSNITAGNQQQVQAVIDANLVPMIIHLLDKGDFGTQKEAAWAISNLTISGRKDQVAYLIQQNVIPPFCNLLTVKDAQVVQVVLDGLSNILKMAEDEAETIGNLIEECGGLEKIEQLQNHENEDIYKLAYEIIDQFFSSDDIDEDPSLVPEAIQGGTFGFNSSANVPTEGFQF


What was measured:
[1] = target: T1, human importin α3 (Impα3); test: ITC binding of NLS-NUPR1 peptides / NUPR1 to Impα3; conditions: ITC, 298 K, Tris 50 mM pH 8; for ΔH (binding enthalpy), Impα3: absolute error 0.5 kcal/mol
Protocol: (§1) The experimental set-up and data processing of ITC experiments has been described previously. Calorimetric titrations, performed in an Auto-iTC200 calorimeter (MicroCal, Malvern-Panalytical, Malvern, UK) consisted of series of 19 2-μL injections, with 150 s time spacing and a 750-rpm stirring speed. Impα3 or ΔImpα3 (at 10–20 μM) was loaded into the calorimetric cell and NLS-NUPR1 peptides in the syringe (150–300 μM); all solutions were prepared in buffer Tris 50 mM, pH 8. […] The binding affinity (association constant) and the binding enthalpy were estimated through a least-squares nonlinear regression data analysis, from which the Gibbs energy and the entropic contribution to the binding were calculated using well-known thermodynamic relationships. Since the binding stoichiometry is constrained by the model, the parameter n provides a fraction of the active or binding competent protein. Experiments for each peptide and importin species were performed, at least, in duplicates.

[2] = target: T2, ΔImpα3 (importin α3 without the IBB domain, residues 64-521); test: ITC binding of NLS-NUPR1 peptides / NUPR1 to ΔImpα3; conditions: ITC, 298 K, Tris 50 mM pH 8; for ΔH (binding enthalpy), ΔImpα3: absolute error 0.5 kcal/mol; for −TΔS (entropic contribution), ΔImpα3: calculated from Kd and ΔH, absolute error 0.7 kcal/mol
Protocol: as §1

[3] = Translational diffusion by NMR DOSY (hydrodynamic properties); type: physicochemical; conditions: for D, translational diffusion coefficient: 283 K, pH 7.2, 50-mM deuterated Tris, 100% D2O, peptide 120 μM; for Rh, hydrodynamic radius from D: from the translational diffusion coefficient of dioxane (Rh = 2.12 Å) added to each sample
Protocol: Concentrations of peptides in all DOSY experiments were 120 μM, and 128 scans, where the gradient strength was varied, were acquired for each curve. Translational self-diffusion measurements were performed with the pulsed gradient spin-echo sequence in the presence of 100% D2O. Experimental details have been described elsewhere. Briefly, the gradient strength was varied in sixteen linear steps between 2% and 95% of the total power of the gradient coil. The gradient strength was previously calibrated by using the value of the translational diffusion coefficient, D, for the residual proton water line in a sample containing 100% D2O in a 5-mm tube [34]. In our experiments for each peptide, the duration of the gradient was 2.25 ms, the time between the two pulse gradients in the pulse sequence was set to 200 ms, and the recovery delay between the bipolar gradients was set to 100 μs. The methyl groups with signals between 1.0 and 0.80 ppm were used for integration. Fitting of the exponential curves obtained from experimental data was carried out with KaleidaGraph (Synergy Software, Version 3.5), as described. A final concentration of 1% of dioxane, which was assumed to have a hydrodynamic radius Rh = 2.12 Å [34], was added to the solutions of each of the peptides to have a comparison for estimating their sizes.

[4] = target: T3, human importin α3 (intact, with the IBB …); test: ITC; Impα3 or ΔImpα3 (10–20 μM) in the cell, NLS-NUPR1 peptide (150–300 μM) in the syringe; Tris 50 mM, pH 8; 298 K; single ligand binding site (1:1) model, n gives the fraction of binding-competent protein; conditions: both partners purified
[5] = target: T4, truncated importin α3 without the IBB …; test: as above; conditions: both partners purified

Molecule	ΔH (binding enthalpy), Impα3 [1] [kcal/mol]	Kd ([1]; importin 10–20 μM in cell, peptide 150–300 μM in syringe, 1:1 model, at least duplicates, relative error 30%, read-out: Kd (dissociation constant), Impα3) [µM]	ΔH (binding enthalpy), ΔImpα3 [2] [kcal/mol]	−TΔS (entropic contribution), ΔImpα3 [2] [kcal/mol]	D, translational diffusion coefficient [3] [cm^2 s^−1 × 10^6]	Rh, hydrodynamic radius from D [3] [Å]	−TΔS (entropic contribution), Impα3 ([1]; calculated from Kd and ΔH, absolute error 0.7 kcal/mol) [kcal/mol]	Kd [4] [µM]	dH [4] [kcal/mol]	Kd [5] [µM]	dH [5] [kcal/mol]	stoichiometry N [4]	stoichiometry N [5]
CC(=O)N[C@@H](Cc1ccc(O)cc1)C(=O)N[C@H](C(=O)N[C@@H](CC(N)=O)C(=O)N[C@@H](CCCNC(=N)N)C(=O)N1CCC[C@H]1C(=O)N[C@@H](CO)C(=O)N1CCC[C@H]1C(=O)NCC(=O)NCC(=O)N[C@@H](Cc1c[nH]cn1)C(=O)N[C@@H](CCC(=O)O)C(=O)N[C@@H](CCCNC(=N)N)C(=O)N[C@@H](C)C(=O)N[C@@H](CC(C)C)C(=O)N[C@H](C(=O)N[C@@H](CCC(=O)O)C(=O)N[C@@H](C)C(=O)N[C@@H](CC(C)C)C(=O)N[C@@H](CCC(N)=O)C(=O)N[C@@H](CC(N)=O)C(=O)N[C@@H](CO)C(=O)N[C@@H](CCC(=O)O)C(N)=O)C(C)C)[C@@H](C)O [K65AT68EK69A] (Ac-YTNRPSPGGHERALVEALQNSE-NH2)	-16.3	27	-28.5	22.2	2.4 ± 0.2	9 ± 2							
CC(=O)N[C@@H](Cc1ccc(O)cc1)C(=O)N[C@H](C(=O)N[C@@H](CC(N)=O)C(=O)N[C@@H](CCCNC(=N)N)C(=O)N1CCC[C@H]1C(=O)N[C@@H](CO)C(=O)N1CCC[C@H]1C(=O)NCC(=O)NCC(=O)N[C@@H](Cc1c[nH]cn1)C(=O)N[C@@H](CCC(=O)O)C(=O)N[C@@H](CCCNC(=N)N)C(=O)N[C@@H](C)C(=O)N[C@@H](CC(C)C)C(=O)N[C@H](C(=O)N[C@@H](CCC(=O)O)C(=O)N[C@@H](CCCCN)C(=O)N[C@@H](CC(C)C)C(=O)N[C@@H](CCC(N)=O)C(=O)N[C@@H](CC(N)=O)C(=O)N[C@@H](CO)C(=O)N[C@@H](CCC(=O)O)C(N)=O)C(C)C)[C@@H](C)O [K65AT68E] (Ac-YTNRPSPGGHERALVEKLQNSE-NH2)	-7.8		-17.9	11.3	1.76 ± 0.06	12 ± 1	1.4						
Ac-YTNRPSPGGHERKLV[pT]KLQNSE-NH2 (SMILES CC(=O)N[C@@H](Cc1ccc(O)cc1)C(=O)N[C@H](C(=O)N[C@@H](CC(N)=O)C(=O)N[C@@H](CCCNC(=N)N)C(=O)N1CCC[C@H]1C(=O)N[C@@H](CO)C(=O)N1CCC[C@H]1C(=O)NCC(=O)NCC(=O)N[C@@H](Cc1c[nH]cn1)C(=O)N[C@@H](CCC(=O)O)C(=O)N[C@@H](CCCNC(=N)N)C(=O)N[C@@H](CCCCN)C(=O)N[C@@H](CC(C)C)C(=O)N[C@H](C(=O)N[C@H](C(=O)N[C@@H](CCCCN)C(=O)N[C@@H](CC(C)C)C(=O)N[C@@H](CCC(N)=O)C(=O)N[C@@H](CC(N)=O)C(=O)N[C@@H](CO)C(=O)N[C@@H](CCC(=O)O)C(N)=O)[C@@H](C)OP(=O)(O)O)C(C)C)[C@@H](C)O, tyrosine introduced at the N terminus for absorbance measurements; not a residue of NUPR1; Thr68 is printed as pT (phospho-threonine); also called pT68; pT68 peptide; source: synthetic peptide (NZYtech, purity 95%)) [NLS-NUPR1 peptide phosphorylated at Thr68]								27	-14.8	29	-28.2		
Ac-YTNRPSPGGHERKLVTKLQNSE-NH2 (tyrosine introduced at the N terminus for absorbance measurements; not a residue of NUPR1; The added Tyr stands where NUPR1 has residue 53; also called wt; wt peptide; source: synthetic peptide (NZYtech, purity 95%)) [wild-type NLS-NUPR1 peptide (residues 54-74 of NUPR1 with an added N-terminal Tyr)]								1.7	0.8	0.95	-3.7	0.9	1
Ac-YTNRPSPGGHERKLVTALQNSE-NH2 (tyrosine introduced at the N terminus for absorbance measurements; not a residue of NUPR1; also called K69A peptide; Lys69Ala; source: synthetic peptide (NZYtech, purity 95%)) [NLS-NUPR1 peptide K69A]								11	-10.8	7.6	-21.3	1.3	1.4
